The values below come from patent US20180002403A1 (CRESCENDO BIOLOGICS, published 2018).

The target in assay [1] is T1, Recombinant human IL-17A (Peprotech AF-200-17) (human, UniProt Q16552 24-155).
T1 construct: Amine-coupled to a CM5 chip (100 RU) for BIAcore; also called recombinant IL-17A
As to the kind of experiment: BIAcore T200, single-cycle kinetics, IL-17A amine-coupled to CM5 chip, 1:1 model. The protocol:
(§1) Recombinant IL-17A (Peprotech AF-200-17) was diluted to 1 μg/ml in acetate buffer, pH 5.5 (BIAcore, cat# BR-100-52) and coupled to a CM5 Series S chip (cat # BR-1006-68) using amine-coupling chemistry (NHS-EDC amine-coupling kit, cat # BR-1000-50) and the BIAcore immobilization Wizard software. In this way 100RU of IL-17A was immobilised plus a blank surface (no IL-17A) was also prepared for reference subtraction. For IL-17RA, first a protein G chip was prepared by diluting protein G to 20 μg/ml in acetate buffer, pH 4 (BIAcore, cat# BR-100-49) and then coupled 1200 RU a CM5 Series S chip using amine coupling chemistry. This surface was then used to capture IL-17RA Fc fusion protein from solution: IL-17RA at 10 μg/ml in HBS injected for 10 seconds at 30 μl/min flow rate would capture approximately 100-150RU of IL-17RA onto the protein G surface.
(§2) Binding kinetics of optimized clone 1.1 (anti-IL-17A) and clone 2.1 (anti-IL-17RA) VH were determined by single-cycle kinetics. […] VH binding kinetics were then determined from the (blank subtracted) sensorgram traces using 1:1 binding models and BIAevaluation software.

The target in assay [2] is IL-17RA Fc fusion protein (human, UniProt Q96F46 33-320, limits assumed). Kind of assay: BIAcore T200, single-cycle kinetics, IL-17RA Fc fusion captured on protein G chip, 1:1 model. As for the experimental part:
as §1, §2

The target of assay [3] is T1, Recombinant human IL-17A (Peprotech …). Kind of assay: BIAcore T200, single-cycle kinetics, IL-17A amine-coupled to CM5 chip. The protocol:
Binding kinetics of VH antibodies were measured on a BIAcore T200 instrument. Target (either recombinant IL-17A or IL-17RA) was diluted to 1 μg/ml in acetate buffer, pH 5.5 (BIAcore, cat# BR-100-52) and coupled to a CM5 Series S chip (cat # BR-1006-68) using amine-coupling chemistry (NHS-EDC amine-coupling kit, cat # BR-1000-50) and the BIAcore immobilization Wizard software. In this way 100RU of target was immobilised plus a blank surface (no target) was also prepared for reference subtraction.
Binding kinetics of VH antibodies were determined by single-cycle kinetics. VH antibodies were prepared in dilution series (typically 1:3 dilution series starting with 100 nM VH at the highest concentration), and then injected over the antigen-coated surfaces and also a blank surface, starting with the lowest concentration of VH and then working progressively up to the highest concentration. VH binding kinetics were then determined from the (blank subtracted) sensorgram traces using 1:1 binding models and BIAevaluation software.

T1 sequence (Q16552 24-155 limits assumed): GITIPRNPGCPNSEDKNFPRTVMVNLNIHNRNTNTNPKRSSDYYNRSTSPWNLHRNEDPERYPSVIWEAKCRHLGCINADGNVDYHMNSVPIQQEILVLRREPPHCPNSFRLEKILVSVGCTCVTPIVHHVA

B1: clone 1.10 VH (VHH)
VHH: VQLVESGGGLVQPGGSLRLSCAASGFTFSSYRMYWVRQAPGKGLEWVASIEQDGSEEYYVDSVKGRFTISRDNAKKSLFLQMNSLRAEDTAVYYCAKGEILPLYFDYWGQGTLVTVSS
notes: Optimized variant of clone 1.1 from the recombination library; human VH single domain; also called optimized VH clone 1.10
As for B1, the “fold improvement in affinity over parent clone 1.1” value in assay [1] is no more than 10 fold.

B2: clone 2.2 VH (VHH)
VHH: QVQLVQSGAEVKKPGASVKVSCKASGYPFTSYDINWVRQATGRSLEWMGWMNPTNGNTVYAQKFQDRVTMTRNTSISTAYMELSSLRSEDTAVYFCARGRRDDWKNNYWGQGTLVTVSS
notes: Optimized variant of clone 2.1 from the recombination library; human VH single domain; also called optimized VH 2.2
For B2, the “fold improvement in affinity over parent clone 2.1” value in assay [2] was 5 fold.

B3: clone 1.1 VH (VHH)
VHH: EVQLVESGGGLVQPGGSLRLSCAASGFTFSSYSMYWVRQAPGKGLEWVANIKQDGSEKYYVDSVKGRFTISRDNAKNSLFLQMNSLRAEDTAVYYCAKGEILPLHFDYWGQGTLVTVSS
notes: Human VH single domain (no light chain) from a Tg/TKO mouse, lead raised against IL-17A; It was cloned in phagemid pUCG3; also called VH 1.1; parent VH 1.1
For the molecule B3, in assay [3], the binding result is listed as “binds”.

B4: clone 1.6 VH (VHH)
VHH: EVQLVESGGGLVQPGGSLRLSCAASGFTFSSYSMYWVRQAPGKGLEWVAEIKQDGSEQYYVDSVKGRFTISRDNAKNSLYLQMNSLRAEDTAVYYCAKGEILPLYFDYWGQGTLVTVSS
notes: Optimized variant of clone 1.1 from the recombination library; human VH single domain; also called optimized VH clone 1.6
As to B4, the “fold improvement in affinity over parent clone 1.1” value in assay [1] was no more than 10 fold.
